From patent US20130273053 come the findings set out here.

This data set deals with ST-pro-factor D-His (UniProt P00746).
Sequence of ST-pro-factor D-His (P00746 21-253): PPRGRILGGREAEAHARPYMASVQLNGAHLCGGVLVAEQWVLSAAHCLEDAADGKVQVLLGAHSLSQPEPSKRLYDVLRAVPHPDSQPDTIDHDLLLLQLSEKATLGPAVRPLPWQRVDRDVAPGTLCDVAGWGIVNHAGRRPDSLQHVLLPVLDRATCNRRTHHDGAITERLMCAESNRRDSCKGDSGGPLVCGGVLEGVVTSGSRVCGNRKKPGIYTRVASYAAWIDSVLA

B1: recombinant MASP-1 (CCP1-CCP2-SP) fragment (enzyme, part only; not given: tags; R504Q status unclear)
chain, part: GNECPELQPPVHGKIEPSQAKYFFKDQVLVSCDTGYKVLKDNVEMDTFQIECLKDGTWSNKIPTCKIVDCRAPGELEHGLITFSTRNNLTTYKSEIKYSCQEPYYKMLNNNTGIYTCSAQGVWMNKVLGRSLPTCLPVCGLPKFSRKLMARIFNGRPAQKGTTPWIAMLSHLNGQPFCGGSLLGSSWIVTAAHCLHQSLDPKDPTLRDSDLLSPSDFKIILGKHWRLRSDENEQHLGVKHTTLHPKYDPNTFENDVALVELLESPVLNAFVMPICLPEGPQQEGAMVIVSGWGKQFLQRFPETLMEIEIPIVDHSTCQKAYAPLKKKVTRDMICAGEKEGGKDACSGDSGGPMVTLNRERGQWYLVGTVSWGDDCGKKDRYGVYSYIHHNKDWIQRVTGVRN
Consider B1, for which the “cleavage of pro-factor D substrate, Western blot” value is “only full length MASP-3 (lane 2) and the MASP-1 CCP1-CCP2-SP) fragment (lane 5) cleaved ST-pro-factor D-His6”.
